Results as given in patent publication US20210115133A1 (NGM BIOPHARMACEUTICALS, published 2021).
Where a chain is given by its changes, count along the chain named. Each block holds one binder with its values, some of them ahead of it.

What was measured:
[1] = target: T1, human beta klotho expressed on cells (human, UniProt Q86Z14 1-1044); test: FACS competition on HuKLB overexpressing cells; cells pre-incubated with the row's antibody, competitor: labelled 9E19-Alexa647
T1 construct: in the reporter assays HEK293 cells were transfected with a GeneCopoeia human beta klotho plasmid together with human FGFR1c; in the adipocyte assay the beta klotho/FGFR1c is endogenous; also called HuKLB overexpressing cells; huKLB/R1c
T1 sequence: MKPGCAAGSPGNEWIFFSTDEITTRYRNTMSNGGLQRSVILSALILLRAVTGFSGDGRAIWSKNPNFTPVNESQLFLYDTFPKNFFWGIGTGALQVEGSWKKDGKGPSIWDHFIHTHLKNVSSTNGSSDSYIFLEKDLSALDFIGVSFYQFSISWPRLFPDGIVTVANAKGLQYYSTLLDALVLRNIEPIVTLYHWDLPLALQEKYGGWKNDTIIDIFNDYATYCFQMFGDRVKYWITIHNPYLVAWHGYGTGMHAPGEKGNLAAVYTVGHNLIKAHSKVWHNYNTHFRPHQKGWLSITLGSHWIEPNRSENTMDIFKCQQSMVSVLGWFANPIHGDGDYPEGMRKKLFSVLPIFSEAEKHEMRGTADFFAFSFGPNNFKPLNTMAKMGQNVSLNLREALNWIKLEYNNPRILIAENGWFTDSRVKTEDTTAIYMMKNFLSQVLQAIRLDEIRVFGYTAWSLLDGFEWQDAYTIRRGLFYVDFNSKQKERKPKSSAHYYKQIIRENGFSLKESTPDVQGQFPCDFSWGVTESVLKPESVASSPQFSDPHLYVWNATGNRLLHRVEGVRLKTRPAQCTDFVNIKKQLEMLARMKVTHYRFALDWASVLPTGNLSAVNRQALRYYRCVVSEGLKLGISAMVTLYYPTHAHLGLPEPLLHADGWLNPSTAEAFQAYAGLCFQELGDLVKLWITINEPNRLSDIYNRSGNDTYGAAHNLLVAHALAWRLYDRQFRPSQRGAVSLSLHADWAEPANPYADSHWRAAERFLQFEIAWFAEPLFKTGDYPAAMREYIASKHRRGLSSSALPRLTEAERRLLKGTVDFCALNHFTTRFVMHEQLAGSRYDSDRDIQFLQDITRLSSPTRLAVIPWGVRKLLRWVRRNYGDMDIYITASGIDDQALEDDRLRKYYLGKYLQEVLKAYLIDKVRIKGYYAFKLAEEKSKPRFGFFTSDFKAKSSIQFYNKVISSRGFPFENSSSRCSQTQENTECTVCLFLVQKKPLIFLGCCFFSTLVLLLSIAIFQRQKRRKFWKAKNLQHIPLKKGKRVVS
Experimental: (§1) For example, for competition binding assays by FACS analysis, antibody standards were prepared that were conjugated to a fluorochrome using either A488 or A647 antibody labeling kit (Invitrogen) following manufacturer's instructions. A dose titration of the conjugated antibody standard was evaluated using HuKLB overexpressing cells. The plateau of the maximal signal of antibody binding is EC=100 and the background signal is EC=0. Competition by FACS against the fluorochrome labeled antibody was performed by pre-incubating HuKLB overexpressing cells with hybridoma supernatants for 15 minutes at room temperature. Without washing, an EC=10 concentration of A488 or A647 labelled antibody standard was added. EC=10 for an individual antibody was determined by 10% of signal using the maximum signal as (100%) and background signal as (0%). After 30 minutes at 4° C., cells are washed and analyzed by FACS. […] A partial competing antibody is one sample that show signal between labelled antibody alone and background. Antibodies that show complete competition against the same standard antibody are considered to be in the same bin.
(§2) In exemplary competition binding experiments by FACS, antibody 3I13 or 9E19 was used as an antibody standard fora positive control (competing antibody) or a negative control (labeled antibody alone), respectively. Representative results are shown in Table 5 below reported as mean fluorescence intensity (MFI).

[2] = target: T1, human beta klotho expressed on cells; test: cell-based or functional assay
[3] = target: T1, human beta klotho expressed on cells; test: FACS competition on HuKLB overexpressing cells; cells pre-incubated with the row's antibody, competitor: labelled 3I13-Alexa488
Experimental: as §1, §2

[4] = target: T2, cynomolgus monkey beta klotho expressed on cells (cynomolgus monkey (Macaca fascicularis), UniProt Q86Z14 1-1044 (human entry)); test: cell-based or functional assay
T2 chain: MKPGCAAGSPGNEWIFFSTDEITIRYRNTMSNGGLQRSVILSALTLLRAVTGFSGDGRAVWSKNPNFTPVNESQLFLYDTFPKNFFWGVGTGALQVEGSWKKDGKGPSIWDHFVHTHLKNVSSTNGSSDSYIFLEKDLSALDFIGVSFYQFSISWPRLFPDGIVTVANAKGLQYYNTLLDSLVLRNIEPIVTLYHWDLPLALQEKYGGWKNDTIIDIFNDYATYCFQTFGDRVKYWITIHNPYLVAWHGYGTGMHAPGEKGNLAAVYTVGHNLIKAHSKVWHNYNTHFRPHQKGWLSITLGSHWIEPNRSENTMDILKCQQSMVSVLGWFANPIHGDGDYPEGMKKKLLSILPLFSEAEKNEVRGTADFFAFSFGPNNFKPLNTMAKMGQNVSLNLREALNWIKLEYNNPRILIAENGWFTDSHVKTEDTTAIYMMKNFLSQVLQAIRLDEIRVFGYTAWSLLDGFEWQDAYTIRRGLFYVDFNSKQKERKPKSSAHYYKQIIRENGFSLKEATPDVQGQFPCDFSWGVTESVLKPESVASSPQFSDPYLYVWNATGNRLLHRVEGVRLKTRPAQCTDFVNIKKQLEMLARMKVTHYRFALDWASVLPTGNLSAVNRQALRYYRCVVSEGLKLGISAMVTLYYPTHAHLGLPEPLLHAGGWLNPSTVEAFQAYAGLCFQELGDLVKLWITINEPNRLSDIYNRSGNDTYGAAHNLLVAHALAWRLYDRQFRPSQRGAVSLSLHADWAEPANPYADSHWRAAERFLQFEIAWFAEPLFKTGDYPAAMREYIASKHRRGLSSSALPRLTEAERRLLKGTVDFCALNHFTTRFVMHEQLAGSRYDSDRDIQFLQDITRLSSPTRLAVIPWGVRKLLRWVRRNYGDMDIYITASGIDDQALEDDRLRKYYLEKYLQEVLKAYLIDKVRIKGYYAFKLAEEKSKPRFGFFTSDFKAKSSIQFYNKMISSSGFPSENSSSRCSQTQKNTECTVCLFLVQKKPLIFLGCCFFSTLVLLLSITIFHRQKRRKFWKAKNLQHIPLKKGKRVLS

[5] = target: T3, human beta klotho protein (human, UniProt Q86Z14 53-997, limits assumed); test: Biacore SPR; antibody captured on anti-mouse Fc CM5 chip, beta klotho 1.56-25 nM injected, 25 C
T3 construct: also called HuKLB; human beta klotho (R&D Systems)
T3 sequence: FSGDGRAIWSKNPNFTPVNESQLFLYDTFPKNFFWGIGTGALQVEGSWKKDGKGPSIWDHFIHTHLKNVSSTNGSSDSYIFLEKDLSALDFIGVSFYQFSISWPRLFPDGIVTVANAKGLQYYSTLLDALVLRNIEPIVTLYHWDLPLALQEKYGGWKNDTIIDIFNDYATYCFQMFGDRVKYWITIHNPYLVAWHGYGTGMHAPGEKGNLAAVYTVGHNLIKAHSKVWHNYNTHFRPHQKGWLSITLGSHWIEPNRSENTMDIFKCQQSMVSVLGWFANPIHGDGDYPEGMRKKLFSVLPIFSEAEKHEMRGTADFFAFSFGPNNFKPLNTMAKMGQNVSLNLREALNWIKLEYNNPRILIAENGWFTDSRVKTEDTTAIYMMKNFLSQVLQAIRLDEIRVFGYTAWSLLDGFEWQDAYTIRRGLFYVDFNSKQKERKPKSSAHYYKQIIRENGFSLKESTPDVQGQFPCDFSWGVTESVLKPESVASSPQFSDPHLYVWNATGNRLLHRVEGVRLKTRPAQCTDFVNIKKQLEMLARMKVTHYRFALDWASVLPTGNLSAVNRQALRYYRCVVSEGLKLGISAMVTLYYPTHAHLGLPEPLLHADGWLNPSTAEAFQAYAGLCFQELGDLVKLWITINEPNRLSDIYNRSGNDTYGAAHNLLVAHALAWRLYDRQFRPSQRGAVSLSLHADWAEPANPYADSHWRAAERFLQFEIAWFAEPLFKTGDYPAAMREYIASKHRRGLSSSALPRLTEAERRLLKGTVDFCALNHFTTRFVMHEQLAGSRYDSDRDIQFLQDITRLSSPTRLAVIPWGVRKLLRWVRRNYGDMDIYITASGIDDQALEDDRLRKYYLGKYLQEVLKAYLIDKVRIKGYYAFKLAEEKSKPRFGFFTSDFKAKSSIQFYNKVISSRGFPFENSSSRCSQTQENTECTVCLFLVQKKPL
Experimental: (§3) Binding affinity measurements were also made in additional Biacore based assays. For example, equilibrium dissociation constant (KD) measurements were carried out with purified antibodies to evaluate their binding to human beta klotho and cyno beta klotho. As mentioned above, anti-mouse Fc antibody (Sigma-Aldrich, St. Louis, Mo.) was immobilized on all four flow cells of a CM5 chip using amine coupling reagents (GE Healthcare LifeSciences, Piscataway, N.J.). Purified antibodies were captured (˜100 RUs) on flow cells 2, 3 and 4 using flow cell 1 as a reference. This was followed by injection of different concentrations of human or cyno beta klotho (1.56 nM to 25 nM, two-fold dilutions in PBS-P buffer) at a flow rate of 70 μL/min and the binding kinetics were evaluated at 25° C.

[6] = target: T4, cynomolgus monkey beta klotho protein (cynomolgus monkey (Macaca fascicularis), UniProt Q86Z14 53-996 (human entry), limits assumed); test: as above
T4 construct: Soluble protein injected in Biacore assays; also called Cyno KLB; cyno beta klotho
T4 chain: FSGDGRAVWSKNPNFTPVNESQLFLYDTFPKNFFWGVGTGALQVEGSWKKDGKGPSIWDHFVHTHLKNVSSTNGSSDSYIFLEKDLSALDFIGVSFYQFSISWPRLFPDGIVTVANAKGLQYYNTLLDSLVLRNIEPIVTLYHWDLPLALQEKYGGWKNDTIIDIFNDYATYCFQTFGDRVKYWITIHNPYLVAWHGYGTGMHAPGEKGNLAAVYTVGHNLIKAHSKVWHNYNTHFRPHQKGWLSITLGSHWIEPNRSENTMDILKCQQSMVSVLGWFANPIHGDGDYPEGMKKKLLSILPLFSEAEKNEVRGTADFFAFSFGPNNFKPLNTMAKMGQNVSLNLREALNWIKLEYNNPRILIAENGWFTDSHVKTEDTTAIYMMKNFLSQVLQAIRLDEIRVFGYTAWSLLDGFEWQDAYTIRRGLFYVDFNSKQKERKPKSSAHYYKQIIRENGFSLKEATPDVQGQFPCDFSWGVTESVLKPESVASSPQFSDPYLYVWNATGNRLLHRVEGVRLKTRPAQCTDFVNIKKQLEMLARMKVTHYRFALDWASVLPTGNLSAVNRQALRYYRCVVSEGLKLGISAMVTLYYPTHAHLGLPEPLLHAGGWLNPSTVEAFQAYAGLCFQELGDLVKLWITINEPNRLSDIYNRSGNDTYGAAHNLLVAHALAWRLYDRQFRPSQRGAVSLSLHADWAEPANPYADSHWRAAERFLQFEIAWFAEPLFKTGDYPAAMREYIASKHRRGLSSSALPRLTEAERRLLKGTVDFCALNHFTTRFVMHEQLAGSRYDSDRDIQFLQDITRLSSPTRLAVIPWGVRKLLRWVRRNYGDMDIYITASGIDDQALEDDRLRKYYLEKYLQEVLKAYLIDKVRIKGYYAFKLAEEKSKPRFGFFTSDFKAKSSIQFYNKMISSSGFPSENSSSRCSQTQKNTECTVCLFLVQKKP
Experimental: as §3

Mean Florescence Intensity (MFI) [1]: 27.8 MFI
HEK293 huKLB/R1c reporter assay EC50 (Experiment - A) [2]: 0.333 nM
HEK293 huKLB/R1c reporter assay EC50 (Experiment - B) [2]: 1.99 nM
Mean Florescence Intensity (MFI) [3]: 8.1 MFI
HEK293 cynoKLB/R1c reporter assay EC50 [4]: 0.438 nM
Kd [5]: 0.4 nM
Kd [6]: 1.9 nM
B1: anti-beta klotho monoclonal antibody 3I13 (antibody, V domains shown)
VH: QVQLQQSGPELVKPGASVKISCKTSGYTFTEYTMHWVKQSHGKSLEWIGSFNPDSGGTSYNQKFKGKATLTVDKSSSTAYMELRSLTSEDSAVYYCARDDGYSTRYWYFDVWGAGTTVTVSS
VL: DIQMTQSPASLSASVGETVTITCGASENIYGALNWFQRKQGKSPQLLIYGATILADGMSSRFSGSGSGRQYSLKISSLHPDDVATYYCQNVLSTPYTFGGGTKLEIK
notes: Murine monoclonal antibody from a hybridoma (captured by anti-mouse Fc); also called 3I13 - Alexa488

Mean Florescence Intensity (MFI) [1]: 25.7 MFI
Mean Florescence Intensity (MFI) [3]: 10.2 MFI
Kd [5]: 4.8 nM
Kd [6]: 12.2 nM
B2: anti-beta klotho monoclonal antibody 2J21 (antibody, V domains shown)
VH: B1 VH with Q1E, T33I, S50N, F51I, N52D, D54N, S55T, S77I, Y80F
VL: B1 VL with A9P, F36Y, I53N
notes: Murine monoclonal antibody from a hybridoma

Mean Florescence Intensity (MFI) [1]: 28.5 MFI
Mean Florescence Intensity (MFI) [3]: 9.1 MFI
Kd [5]: 0.92 nM
Kd [6]: 3.2 nM
B3: anti-beta klotho monoclonal antibody 4A2 (antibody, V domains shown)
VH: B1 VH with Q1E, A16T, H35Y, S50G, D54N, S55Y, T58A, G66D
VL: B1 VL with F36Y, I53N
notes: as for B2
